Series [1] addresses T1, tPA (Homo sapiens, UniProt P00750).
T1 construct: purchased Boehringer-Ingelheim (Actilyse, Alteplase)
Description: Plasminogen-activation assay (tPA-mediated Plg to Pls, S-2251). As to conditions: 100 μg ml^−1 protein. Type of series: biochemical. Here is the method: Plasmin (Pls) activity was assayed as described^7. Peptides and proteins that were tested for their stimulatory ability were regularly used at 100 μg ml^−1. […] Chromogenic substrate S-2251 (Chromogenix, Instrumentation Laboratory SpA, Milano, Italy) was used to measure Pls activity. Conversion of zymogen factor XII (#233490, Calbiochem, EMD Biosciences, Inc., San Diego, Calif.) to proteolytically active factor XII (factor XIIa) was assayed by measurement of the conversion of chromogenic substrate Chromozym-PK (Roche Diagnostics, Almere, The Netherlands) by kallikrein. Chromozym-PK was used at a concentration of 0.3 mM. Factor XII, human plasma prekallikrein (#529583, Calbiochem) and human plasma cofactor high-molecular weight kininogen (#422686, Calbiochem) were used at concentrations of 1 μg ml^−1. […] Assays were performed using microtiter plates (Costar, Cambridge, Mass., USA). Peptides and proteins were tested for their ability to activate factor XII. […] The conversion of Chromozym-PK was recorded kinetically at 37° C. for at least 60 minutes. […] With S-2222, activation of factor XII in plasma was measured, using 60% v/v plasma, diluted with substrate and H2O with or without potential cofactor. Furthermore, auto-activation of factor XII was measured by incubating 53 μg ml^−1 purified factor XII in 50 mM Tris-HCl buffer pH 7.5 with 1 mM EDTA and 0.001% v/v Triton-X100, with S-2222 and H2O with or without potential cofactor.
Formulated protein therapeutics were obtained from the local hospital pharmacy and were used as supplied by the manufacturers. […] Enhancement in fluorescence of ThT and Congo red was measured with all formulated protein therapeutics. […]
To prepare structurally altered ovalbumin (OVA) with amyloid cross-β structure conformation, purified OVA (Sigma, A-7641, lot 071k7094) was heated to 85° C. […] Native OVA (nOVA) and heat-denatured OVA (dOVA) were tested in the ThT fluorescence assay and in the Plg-activation assay. In the fluorescence assay and in the Plg-activation assay, 25 and 100 μg ml^−1 nOVA and dOVA were tested, respectively. […]

Series [2] in a line: ThT fluorescence of LPS-protein mixtures. Type of series: physicochemical. The method, then: (§1) Fluorescence of ThT-protein/peptide adducts was measured as follows. […] Fluorescence was measured at 485 nm upon excitation at 435 nm. Background signals from buffer, buffer with ThT and protein/peptide solution without ThT were subtracted from corresponding measurements with protein solution incubated with ThT. […] Fluorescence was measured in triplicate on a Hitachi F-4500 fluorescence spectrophotometer (Ltd., Tokyo, Japan).
Subsequently, the ability to enhance ThT fluorescence was determined with 40× diluted solution, as described above. […]

Series [3] in a line: ThT fluorescence of CpG-ODN-protein mixtures. Type of series: physicochemical. Conditions: for increased ThT fluorescence: 1 mg ml^−1 protein exposed to 21.4 μg ml^−1 CPG-ODN (FIG. 4F); for increase in ThT fluorescence: 1 mg ml^−1 protein, 30 min. at room temperature (FIG. 4D, E). Here is the method:
as §1
Enhancement of ThT fluorescence was measured similarly as described above. […]

Series [4] concerns anti-β2GPI auto-antibodies. Description: Interference with binding of anti-β2GPI autoantibodies to immobilized β2GPI. As to conditions: antibodies from Anti-phospholipid syndrome patients. Also on record: species or system human. The method, then:
When plasma derived β2GPI is coated onto hydrophilic ELISA plates, anti-β2GPI auto-antibodies isolated from plasma of antiphospholipid syndrome auto-immune patients can bind^14. To study the influence of co-incubations of the coated β2GPI with the antibodies together with plasma β2GPI or recombinant β2GPI, concentration series of β2GPI were added to the patient antibodies. Subsequently, binding of the antibodies to coated β2GPI was determined.

Series [5] can be described thus: ThT fluorescence of β2GPI with or without CL vesicles or DXS500k. Type of series: physicochemical. The method, then:
ThT fluorescence of β2GPI was measured as follows. […] CL vesicles were prepared according to an established procedure. Briefly, CL was dried under a stream of nitrogen. The lipids were resuspended to a concentration of 10 mg ml^−1 in 25 mM Tris-HCl, pH 7.3, 150 mM NaCl by vigorous agitation, using a vortex. In the ThT fluorescence assay, fluorescence of β2GPI in buffer, of CL or DXS500k in buffer, of buffer and ThT alone, and of β2GPI-CL adducts and β2GPI-DXS500k adducts, with or without ThT, was recorded as described above (section ThT fluorescence). In addition, TEM images were recorded with CL, β2GPI from human plasma, with or without CL, and with recombinant β2GPI, as described^1.

Series [6] has as its system Balb/c mice. The series can be described thus: Immunization of Balb/c mice with ovalbumin and amyloid-like ovalbumin. Type of series: in vivo. As to conditions: without adjuvant. The method, then: Eight to ten weeks old female Balb/c mice are immunized with OVA according to two immunization regimes (Central Animal Laboratories, Utrecht University, The Netherlands). Pre-immune serum was collected prior to the immunizations. In one regime two groups of five mice were subcutaneously injected five consecutive days per week, for three consecutive weeks. Doses comprised 10 μg native OVA or heat-denatured OVA for each injection. Alternatively, according to the second protocol, three groups of five mice were injected once intraperitoneally with doses comprising 5 μg nOVA, 5 μg OVA or 5 μg native OVA mixed 1:1 with complete Freund's adjuvant (CFA). Each week, blood was taken. After three weeks, a second dose was given. Incomplete Freund's adjuvant (IFA) was used instead of CFA. Blood was taken after one week after the start of the immunization. Antibody titers in sera were determined and sera were analyzed for the presence of cross-β structure conformation specific antibodies. For this purpose, nOVA was coated onto wells of 96-wells ELISA plates and incubated with dilution series of sera. Sera of the groups of five mice were pooled prior to the analyses. Plates were washed and subsequently incubated with peroxidase-conjugated rabbit anti-mouse immunoglobulins (RAMPO, P0260, DAKOCytomation, Glostrup, Denmark). Plates were subsequently developed with tetramethylbenzidine (TMB) substrate. […]

The target of series [7] is T2, human fibronectin finger 4,5 (Fn F4,5) fragment (Homo sapiens, UniProt P02751).
T2 construct: human fibronectin finger 4,5 (Fn F4,5) fragment; made in house; host or cells: HEK293E cells, transient transfection, protein purified from the medium
Description: ELISA, binding of fibronectin F4,5 to coated (mis)folded proteins. As to conditions: coated protein, FIG. 7D-H. The method, then:
The plates were blocked using Blocking reagent (Roche 1112589). A dilution series of the protein of interest was applied to the coated proteins and wells were subsequently washed using TBS-T (50 mM Tris pH 7.3, 150 mM NaCl and 0.1% Tween20). Bound protein is detected by the FLAG-tag using 1:3000 anti-FLAG-HRP (Sigma A-8592) in PBS-T, or by 1:1000 Ni-NTA-HRP (Qiagen 34530) in PBS-T. The HRP reaction Is performed using the TMB substrate (Biosource 4501103 or Tebu Bio 101TMB100-500), stopped using 10% H2SO4 and absorbance was measured at 450 nm.
(In general: In an ELISA, binding on a coated surface is turned into a signal by an enzyme label.)

[8] abbreviates: 1 mg ml^−1 protein exposed to 600 μg ml^−1 LPS (FIG. 4C).

T1 sequence (P00750 36-562): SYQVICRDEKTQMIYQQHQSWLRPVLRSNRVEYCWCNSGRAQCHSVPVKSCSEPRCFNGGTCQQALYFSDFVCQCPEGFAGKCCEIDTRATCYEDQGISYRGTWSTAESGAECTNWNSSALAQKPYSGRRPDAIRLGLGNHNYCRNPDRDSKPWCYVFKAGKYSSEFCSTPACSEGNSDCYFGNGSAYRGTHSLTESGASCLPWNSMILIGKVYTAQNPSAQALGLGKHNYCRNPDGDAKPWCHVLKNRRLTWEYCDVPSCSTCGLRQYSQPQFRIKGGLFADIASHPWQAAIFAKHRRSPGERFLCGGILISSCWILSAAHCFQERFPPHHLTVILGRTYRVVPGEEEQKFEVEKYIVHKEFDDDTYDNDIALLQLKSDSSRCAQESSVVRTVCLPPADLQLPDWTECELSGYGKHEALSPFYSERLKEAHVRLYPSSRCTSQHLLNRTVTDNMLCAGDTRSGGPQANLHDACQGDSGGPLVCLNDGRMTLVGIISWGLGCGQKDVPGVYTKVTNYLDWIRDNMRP
T2 sequence (P02751 182-276 limits assumed): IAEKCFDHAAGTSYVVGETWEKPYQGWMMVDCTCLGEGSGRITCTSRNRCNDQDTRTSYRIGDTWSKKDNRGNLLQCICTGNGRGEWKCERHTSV

B1: recombinant β2GPI: recombinant human β2-glycoprotein I made using insect cells (protein)
chain: GRTCPKPDDLPFSTVVPLKTFYEPGEEITYSCKPGYVSRGGMRKFICPLTGLWPINTLKCTPRVCPFAGILENGAVRYTTFEYPNTISFSCNTGFYLNGADSAKCTEEGKWSPELPVCAPIICPPPSIPTFATLRVYKPSAGNNSLYRDTAVFECLPQHAMFGNDTITCTTHGNWTKLPECREVKCPFPSRPDNGFVNYPAKPTLYYKDKATFGCHDGYSLDGPEEIECTKLGNWSAMPSCKASCKVPVKKATVVYQGERVKIQEKFKNGMLHGDKVSFFCKNKEKKCSYTEDAQCIDGTIEVPKCFKEHSSLAFWKTDASDVKPC
Take B1: the “stimulation of tPA-mediated conversion of Plg to Pls” value in series [1] is given as “stimulate tPA-mediated conversion of Plg to Pls”. Also, the ThT fluorescence enhancement in series [2] (setting [8]) is reported as about 4 times. Besides, in series [3], the “increased ThT fluorescence” value is recorded as “approximately 5 factor”. The “inhibition of binding of anti-β2GPI auto-antibodies to immobilized β2GPI” value in series [4] was “efficiently inhibits binding”. Also, the “ThT fluorescence after exposure to CL vesicles or DXS” value in series [5] (25 μg ml^−1 β2GPI, 100 μM CL vesicles or 250 μg ml^−1 DXS) was “increased fluorescence of ThT”. In addition, the “ThT fluorescence signal of β2GPI preparation” value in series [5] (without CL or DXS500k) was “higher ThT fluorescence signal”.

B2: nOVA: native chicken ovalbumin (protein)
chain: GSIGAASMEFCFDVFKELKVHHANENIFYCPIAIMSALAMVYLGAKDSTRTQINKVVRFDKLPGFGDSIEAQCGTSVNVHSSLRDILNQITKPNDVYSFSLASRLYAEERYPILPEYLQCVKELYRGGLEPINFQTAADQARELINSWVESQTNGIIRNVLQPSSVDSQTAMVLVNAIVFKGLWEKAFKDEDTQAMPFRVTEQESKPVQMMYQIGLFRVASMASEKMKILELPFASGTMSMLVLLPDEVSGLEQLESIINFEKLTEWTSSNVMEERKIKVYLPRMKMEEKYNLTSVLMAMGITDVFSSSANLSGISSAESLKISQAVHAAHAEINEAGREVVGSAEAGVDAASVSEEFRADHPFLFCIKHIATNAVLFFGRCVSP
For B2, the “anti-nOVA antibody titers in pooled sera” value in series [6] was “Titers were also obtained”.

B3: reduced and alkylated OVA: reduced and alkylated ovalbumin (protein)
chain: GSIGAASMEFCFDVFKELKVHHANENIFYCPIAIMSALAMVYLGAKDSTRTQINKVVRFDKLPGFGDSIEAQCGTSVNVHSSLRDILNQITKPNDVYSFSLASRLYAEERYPILPEYLQCVKELYRGGLEPINFQTAADQARELINSWVESQTNGIIRNVLQPSSVDSQTAMVLVNAIVFKGLWEKAFKDEDTQAMPFRVTEQESKPVQMMYQIGLFRVASMASEKMKILELPFASGTMSMLVLLPDEVSGLEQLESIINFEKLTEWTSSNVMEERKIKVYLPRMKMEEKYNLTSVLMAMGITDVFSSSANLSGISSAESLKISQAVHAAHAEINEAGREVVGSAEAGVDAASVSEEFRADHPFLFCIKHIATNAVLFFGRCVSP
Consider B3, for which the “affinity of fibronectin F4,5 (detection anti-FLAG HRP)” value in series [7] was “acted as its native control”.

B4: endostatin: protein therapeutic endostatin (EntreMed, Inc.) (protein)
chain: HSHRDFQPVLHLVALNSPLSGGMRGIRGADFQCFQQARAVGLAGTFRAFLSSRLQDLYSIVRRADRAAVPIVNLKDELLFPSWEALFSGSEGPLKPGARIFSFDGKDVLRHPTWPQKSVWHGSDPNGRRLTESYCETWRTEAPSATGQASSLLGGRLLGQSAASCHHAYIVLCIENSFMTASK
With B4, in series [1], the “stimulation of tPA-mediated conversion of Plg to Pls” value is on record as “absence of tPA activating properties”. Further, the ThT fluorescence enhancement result was “approximately 8 times” in series [2] (200 μg ml^−1 LPS (FIG. 4D, E)); about 20 times in series [2] (400 μg ml^−1 LPS (FIG. 4D, E)); about 26 times in series [2] (600 μg ml^−1 LPS (FIG. 4D, E)); “approximately 10 times” in series [2] (setting [8]). Further, the “increased ThT fluorescence” value in series [3] is listed as “approximately 10 factor”. Further, the “increase in ThT fluorescence” value in series [3] (10.4 μg ml^−1 CPG-ODN) is given as about 39 times; in series [3] (21.7 μg ml^−1 CPG-ODN), about 56 times.

Values taken from patent publication US20080207488A1, “Method for Detecting Peptides Comprising a Cross-B Structure” (priority 2005, published 2008).
